Assay results from the DeepSol protein solubility set.

assay: soluble on expression in E. coli; label from the status in PepcDB or PDB records

Sequence	soluble on expression in E. coli
MNVLFLSISLGSGHIRAAEALQKFVVQKYPKSKTLIVDTFKYINPLIHTVVVDGYLNIVKYVPEIYGGLYRMSEHIKNIDRMSRGFSNLLTPKIHRLIQSFKPSIIVCTHPFPLQMIAHLKKHYNLDVPSIAIVTDFVNHPFWFQNNIEAYIVAHDYIKRDMIECGISEDRIFTYGLPVAPEFLKSIPKEQARKELSLENTLTVLLMGGSLGIGDIENTFKSFAKCKRDIQIIAVAGKNTALKKRLDSLAASFPMPVKIFGYTDSIPMLMDASDFIVTKPGAMTISEALVKRLPALIISPIPGQEERNEQFLVNSGTAVRIYKNTKIDSVLCQVYDNKLRYKQMKEIAGNLANPDSGRNILSLIEKLVNDNEKGLFKYSFNAF	soluble
MGHGEEPLTATYKTQRPPWIGLWSDREYKGRADWWKEPGLEDSVTRSGKLRLYRARFREEDPDWYDPKVKDGESLAGPFGLDSKKTKNLTKKGDQPGELSEFQNKVYEGSHQFKAIAEKFGISKEHPGLSVSPTLSDNMLTPKDELGRNAVLPNSWYPAGPRFFDSPLNEGSFWKGLAAAKYAGILLAPYTMLEIRALNTVSVSEFSPRTYMKRYLQLAPFPLAVAFAWGFSLSAASSIRHKDDVHNHWFASVAVGSTVATMKSNVALGTTAAIFTAILGAFWQYQRHSETGLQGMTAHPQSAGIWGGPLLWQKMQLGNADVPTTRY	not soluble
MSQDIFTRDNLLRVENPNILVGESPVKYRVEEIYLDGKLKKAEDVDEEEKSYGIFMHSLVLSNYAEVMNVSHKKLDVIRDEKEKAIFYFTEEKGFDKSLIESIVPKVEAFSLNEDKLKVSTHIINEKMRIISRGTPDELLKRCSYILLDSKIVKKTRKIYREINRVLNDMINRCCTVYALAIKDVSKTDIITNVDAYIDGMTLVALIGMCRA	soluble
MSLDISKKSLLTPAEAAKLLHVAPTTIRHWAQIGRLPFISTPGGHRRFDRNDILSLMSTPKINVKNDFSILIIEDDKEFADMLTQFLENLFPYAKIKIAYNPFDAGDLLHTVKPDVVMLDLMMVGMDGFSICHRIKSTPATANIIVIAMTGALTDDNVSRIVALGAETCFGKPLNFTLLEKTIKQLVEQKKATSEGHHHHHH	soluble
MAHHHHHHMGAPLREDPYNIKTPISDGTTIIGIIYEHGVMLACDTRTSSGTLVSNKCSRKINRINENIYACRSGASAHSQKVIELIKHFCLSMKCENRKKGRFHEDEVITDDLANEEDIDLSAINNPFGLAQNMDPNYVTKHKYFYEDKFMDFNPLVENVAHMTKKLLYANNHFLSCGLILGGYDKEKKQQLYSVNLNGSIVQRFDYAVSGSGSVYIQSYLQDKYKKNMSKKECFELILGCVKYAMYNDNSSGGIVRIVNMTKLFVEEFTVTNTQLHFDY	soluble
MGSDKIHHHHHHMPNKDIDDLVRFLKDKQISTITKKYHSYLTFHGLKAANVFILKEGIIKTSVILQDGREFNISYINQPDVISLLHDEALQYDEQPFNVRIESETATFYQVNRVEFWQYVNAKSELQNYVKQYYRHRLSETFARIQRLTMNGKMGALANFLHDIAEKFGRDLPDEAGVLIDFNVTNEDIAGFCGIANQTSVSRMMRKLKLEDIIDFGMSNDGKRRIIITNMKKLDDYIAY	not soluble
MSHKFSRRAFAVLTAAAISTSAFATTAPSAIAEPVSNVATADDSSVATSENSLDWGFKASWRTYVTGPWTGGTVDATGGATVNEDGTYNFTLGTGSNYDVDTEKGQLNYEGTVAFASDAHGFNITLSNPQITVEGDTATLSAELSDNAAPEETSTTRVDVAEFELTAPEVSETDADITYTWTDASGTFLETLQPEELSRYAGQEADALSFSITVDKASENPSDDVATGSSSSFLSTILNFLQQLASPLLKLFGSLSS	not soluble
MEDLRRYICDNTQKNIVMLVGRKVSDISKIARSYGNACMLRSFQGFRIVKSIYYYEDEVKISADGIVLCKDSLDELLRTVEQNNHVEIRNAVATFYDEMSSMGMNGESMNLNINYLLFQFIHLASEQDDNVNQQEILRLISESSFKTGIERGSRAHMTRFCCEYGDYLSQLRKNVSRGVIGMVEKEVRDNYATNITLKSLSEKYYVNSAYLGQLFRKKYGQSFKDYLNNYRMERAAELLLRTDKKIIQIAEEVGYHDMDYFVNRFIQVKGCTPARFRRQMQSGE	not soluble
MSLAAPTLTGGKLTVGIQGTHAELGVLLYPGVQMAAVHGLSDLFEVANRIAGEQPQAQLPRLRVSHWQASGELPPVRVHDSLAEAPGALLAVLIPPSLAGFSSHQSSAALMDWLRQQHAAGATLGGVCVGSILLAESGLLDGRSATTHWTSAQAFAERYPQVRLEADKPIVDDGDLITSAGLMAWAELGLRLVNRLLGPSIASATARFLVMEHSASASQCGSNFAPILSHGDGAILKLQHWLQANGAVDVSLPVMAQQAGLEPRTLLRRFRAATGLKPTQYCQHLRVGKARELLEFTNGSIDHIAWTVGYQDPATFRSLFRKITGLAPSEYRNRFGATSTAASREGHHHHHH	soluble
MKTPTFGKREETLTYQTRYAAYIIVSKPENNTMVLVQAPNGAYFLPGGEIEGTETKEEAIHREVLEELGISVEIGCYLGEADEYFYSNHRQTAYYNPGYFYVANTWRQLSEPLERTNTLHWVAPEEAVRLLKRGSHRWAVEKWLAAASLEHHHHHH	soluble
MKKYILTLILALASLGLYAQTNRNKTIINAALHGWEYEIKAGVNLGGTAPLPFPEEIRSIDGYNPTLSITIEGNMTKWLDTKKKWGIITGLRLENKGMRTKATVKNYNMEIIGYDGNRLKGNWTGGVRTKVQNSYITIPVLAAYKLSPRTTLKLGPYFSYLMDGDFSGHVYEGYLRETNPTGDKINFTNGAIATYDFSGDLRKFQWGVQAGVDWKAFKHLKVHADLNWGLNDIFNKDFKTVTFDMYAIYLNVGFGYAF	not soluble
MGSDKIHHHHHHMVEPSKVVGLISDFGDSPYTGIMRAVIKSISRELQIIDIDHSIPSFSPLAGAYVVAHTYQWLPKGSVIVAVVDPGVGTSRYALAVETENYVFIGPDNGVLYPAAASDGIKRVYALREKDVNSLARMKTSSTAGTVKPWSISRTFHGRDVFAPAGALIAAGHASLEELGDEIEPERMKRASIDHVEKLGPSTFRATVVYIDKFGNVALSIRPKKLGINLSLYKSVVLGTHTTSNTIRMGKTFGDANPGELVAYENSFGHLEIAVNRGNAAKKLGLELEARVEIELLENSGPAPNGSRGVRNADLLGVSSRSLGETIW	not soluble
MSMERSLEAWEEVQRHGQDLADRLAQGFTGLIHINPPSFPWPPNHHHLHKAKLFDLEFPTQHFSVIKDSRFSINQPINGVTAILDIGNKIGQAGVDFGAGLNVMVQQFFRRLPIPFLHEDNNKLVVSVDGDKSTRSHRAYVITKGDLGMATERLRDSGFSKTDDTASVTMSEEEVADSYLRAAGLLGRSKGTIDTSSSYDSRTNGMEHSLAARGDLWRVEASHSSSTASDGNSSLFLLQLGPLLFLRDSTLLLPLHLSKQHLLWYGYDRKSFMDLQFPNGQLTYVSGEGLTTSAFVPFCGGLLQAQGQYPGDMRFSYSCKNKCGTRITPMVHWPDKSFGLDLSQPLAWRRSGLLMKPTIQVSVCPTFGGSNPGIKAEVIHSLSDDLNLICGYALNAHPSAFASVAFGRSKWNGNIGRTGIVVRADTPLASIGQPSFSIQLNNAFEF	soluble
MCKMEITDLIKGMESANVSDIYIFLHEDGPVAFDASAAHLLCYFPEMEMESVFCSDSKRHRIIQGFALEPVLERLAQYPCLVDDDCIRIMGVL	not soluble
MAKKVFIGATGQNCGKTTMSVSLMHLARQKYQRVGFIKPIGPKIEMYNGLTVDMDAILMARTFGLEEDLALMNPVPLPKNFTRDYLSGKFDCHTLKKKIVEAFEILDQSYDFLIIEGAGHCGVGSVIGLSNACVAHMLGAPVIVVTDSGIGSAIDAVHLNLALYEKEEADVRMVIVNKLRSDKRDSILGFLRRGFPGRSLQVTGGFNYSPVLANPTLSHIGKLLNLPVHGDADGHSRIIHHIHLGAASSQRVVDALEDATLLVLTSSRDELIVTLSSLYHIPSYRDKIAGLVIAGHMPVSEITQQILDDSMIPYIRVHDSTARVFTTLMEDVSKITAEDQEKLNWIRANAENEIDFEAIDALLLEHHHHHH	not soluble
GPGSMLRAFASPILAKVPYATLFEYNHVLQKVFEAQPSKVALRCELPGMPEVQFTYGQLQRDVVALADAVVRRKEAVAQARGETSLGWLQPSKPAHVRSVFAQGERTPSCDYMKDTGFYTTSLLCGPGYTYAVSLLASWSLNQLVTPMPISQRYKDELMYVLEHSGSRSIVGNTKLLKEKLPAEYEELYVRAEADVDKIPRSASREPKQRNDSDVTSNTFFVDTVYDATLLVRDITAARDIQGTATLETEWLPPAESVCAPMRSAEDLVKRLDEEKATAKARELDRQAEILQQEHVRRNRAPMQATGGADPAGSDADGESLFCFDSAHLDELNRVYQRWYTMPSARPTKYDDCLMLYTSGTTAKPKGVVHTHASVANMVKVLQNAWQWRDTDSILHVLPWHHVHGLVNILLCAIASNARCVVTTFDDAARVAHRLEQGDITLFMAVPTVYVKLSDAVQRKFSPIEKTGFRRACMESVRLMVCGSAPLPVPTLNQFCELSGHTLLERYGMTEIGMALSQPLHPISDRHPGTVGSPLQTVKTYVHQPETAEAMEQASAKEAEYDEVGGLGIASESLFDRYWNNATATKKEVRTNAAGMRFFDTGDTVGVRLPAGKPAVYTILGRSSVDIIKSRGYKLSALEIEATLLARNDLFYEIAVVGAADAVQGESVVAIVAMQPEAARARGIAFGEGFAWHESAAVTEELKKAALQLLAPYKCPSRYIVVPEIPRNPTGKVNKKDLKKVLGLA	not soluble
MRIVSLCPSNTELLAYLGRLDDVAAVDDSSDWPPEVKQLPKVGPDLHIDMDQVEALKPDLVVASLSVPGMERNVKELKRRGLPHLVLAPNSLDDIANDLLRLGEALGETKKAAELVRRYHDVLDWHRERAASAEPARLYWEWWPRPVFTPGGANWLSELSELAGGRNIFSDIPQASVQTEWDDVLARNPSHILLVWVGVQTKKMSPKAVTARPNAQQAEAVRTGNIHILEESLYCRPSPRLLVGLKKLAPLLHPALFPPADDSDPLLGG	not soluble
MGHHHHHHSHMAYNKEEKIKSLNRMQYEVTQNNGTEPPFQNEYWDHKEEGLYVDIVSGKPLFTSKDKFDSQCGWPSFTKPIEEEVEEKLDTSHGMIRTEVRSRTADSHLGHVFNDGPGPNGLRYCINSAALRFVPKHKLKEEGYESYLHLFNK	soluble
YLASDGKTIILVGKNNLQNDELTFKMSKKGELWFHAKDIPGSHVLIKDNLNPSDEIKTDAAELAAYFSKARLSNLVQVDMIEAKKLNK	not soluble
MSTFFQQTAQAMIAKHIDRFPLLKLDQVIDWQPIEQYLNRQKTRYLRDHRGRPACPLLSMFKAVLLGQWHNLSDPELEHSLITRIDFNLFCRFDELSIPDYSTLCRYRNRLAQDDTLSELLELINRQLTEKGLKVEKASAAVVDATIIQTVGSKQRQAIEVDEEGQVSGQTTLSKDKNARWTKKNSLYKLGYKQHTRTDAEGYIEKLHITPANAHECKHLSPLLEGLPEGTTIYADKGYDSAENRQHLEEHQLQDGIMRKACRNRPLTETQTKRNRYLSKTRYVVEQSFGTLHRKFRYARAAYFGLICARCRLKGSPDA	not soluble
MGSDKIHHHHHHMKKKLKIGISACVMGEPVRFDRGHKKSGFCMEQLAEFAEFKPVCPEMAIGLPVPRPTIRQIVRDNIITVSRPDGSGDVTQALKEFGAKAALNYQELAGFVFCAKSPSCGMERVKVYHHHGKGSESTGVGIFAEQVMKANPLLPCEENGRLNDPIIRENFTTRIFTYQKWLDLKAEGLTRHKLIQFHSAHKYLVMSHHVESYRELGRLLGRADIGLEEQSERYISGLMQALKHKASRRSHTNTLQHLQGYFKRQLDEHKRRELTQEIAAYREGLSPLLVPLTLIKHYLIEFPNEYLLQQAYLNPHPKELRLRYGY	not soluble
MKAIITKPMCVVGDNKSTVRFETSTPNNPFVEISNQVYARLKRANAAKPFVDVKTKIKPDKAVEQIKQIEKEPNQISSETVTEETSLEKPKASKASKPSTPTPKKA	not soluble
